Experimental findings from the DeepSol protein solubility set are described below.

This data set in a line: soluble on expression in E. coli; label from the status in PepcDB or PDB records.
As to “MDLVDPLAEPCAVCGDKSTGTHYGVISCNGCKGFFRRTVLRDQKFTCRFNKRCVIDKNFRCACRYCRFQKCVQVGMKREAIQFERDPVGSPTSGASLNGTPFKKDRSPGYENGNSNGVGSNGMGQENMRTVPQSSSVIDALMEMEARVNQEMCNRYRRSQIFANGSGGSNGNDTDIQQGSDSGASAFAPPNRPCTTEVDLNEISRTTLLLMVEWAKTINPFMDLSMEDKIILLKNYAPQHLILMPAFRSPDTTRVCLFNNTYMTRDNNTDLNGFAAFKTSNITPRVLDEIVWPMRQLQMREQEFVCLKALAFLHPEAKGLSNSSQIMIRDARNRVLKALYAFILDQMPDDAPTRYGNILLLAPALKALTQLLIENMTLTKFFGLAEVDSLLSEFILDDINDHSTAPVSLQQHLSSPTTLPTNGVSPLNPAGSVGSVSSVSGITPTGMLSATLAAPLAIHPLQSQDSILNSEQNNHML”, the “soluble on expression in E. coli” value is “soluble”.

Take “MGSDKIHHHHHHVSSSLKDIQNKNQELDTKKQILSALNIRDVKDADAEYNKYVKGDMLMNVDGTLTENTDGFSISYEKEAKENNRLHVFVCEVDGETKYVVPVYGAGLWGAIWGYVALNADKDTVYGVYFSHASETPGLGAEIAGAAFQNEFSGKKVLKDGQVALAVEKNGKVTDPAYQVDGISGGTITSKGVDAMIKACLSQYDKFLTNN”: the “soluble on expression in E. coli” value is given as “not soluble”.

Consider “MMLSNFKRNKYQQHLAQLPRISQNADDVQTLHSPELFRTTLTNAILRAKKRVYIVALYLERDDGGIGILSAIYEAKRQCPELDVRVLVDWHRAQRGRIGTAAENTNADWYCDMAKKHPDTHFPIYGIPVNTREALGVLHLKGFIVDDTVIYSGASLNDVYLHQHQKYRYDRYQLIHNPVLADTMVQYIQTMLSAPAVQRLDHTDRPKSLEIKNDIKQFRQTLRTASYQAPECSANANELTVTPLVGLGKQSPLNKTIHHLMYCADEHLVICTPYFNMPALLVRNIIRLLRDGKKVEIIIGDKTANDFYIPEDQPFKIIGALPYLYEINLRRFLSRLERYIENQQLVVRLWKDGDNSFHLKGMWVDGKWQLLTGNNLNPRAWRLDLENAILIHDPQQVLLQQRLDELDTIRTHTHVVKSYTELESIAQYPVKVRKLIRRLRRIRIDRLISRILLEHHHHHH”, for which the “soluble on expression in E. coli” value is “not soluble”.

Take “MAHHHHHHMAAYVGSVPPATLTTLAQREVELSLLQFLRQYHPKVDELWRTHPDAEPMETAEEMCMDASDDCKSDHLPRLHRELHDSYVQGRFLFLGESTQGLYSSQPWLAFWALQAADMLDITEKLYEHVSPDALGNFILGCLQEVKKSGTSNDDDMRNNPMDMDEQQESVLLRNPVSIFDDDNDDGKRLVGFAGGQLAQIPHLAASYAALCSLCILPRTTYLRALPRAAIKRWLLSLRCKDGSFCMHTGGEADIRASYCVAVMTVLLQLNDVPAYTDGRDDTVLTEQTAAFVASCQTHEGGFACGLNASEAHGAYTQCGLAALILMRYPHLCKYAALRRWLSARQLKFEGGFNGRTNKLVDSCYSYWVGASHMLLRVGESYMRLLGQTETPRCLTAREALLLDHAQLIDTTSMCPMDDDAWRHAEEIHRQRTAHVEAYLHAPSHSTWKQQTATQSFLDEDVGDFYFNQRRLLLYVLSCCQDKEMGGLMDKPGCLNDAYHTCYSLSGMSTAQNLQYLPRSCTNETLMYATALRRGYIPNERDDYEIVLAVHNSNRGVGCGCYRSQERLSPLNPIFNICQSRVLAALRTWGVKSFIC”: the “soluble on expression in E. coli” value is “soluble”.

For “MIKMIVVLRLGHRPERDKRVTTHVALTARAFGADGIIIASEEDEKVKESVEDVVKRWGGPFFIEFNRNWRKVMKEFTGVKVHLTMYGLHVDDVIEELKEKLKKGEDFMIIVGAEKVPREVYELADYNVAIGNQPHSEVAALAVLLDRLLEGKGLKKEFKGAKIKIVPQARGKKVVEVQGYAEQDKAEGKATPGKNWENSGFTGDNP”, the “soluble on expression in E. coli” value is “soluble”.

Turning to “QRQSPIYHAQATVLIKSAEKSGATSGLQQFQELGLMIGNSEVENEILMLKSKRLTAIVVDKLDLDVSIYKQGFWRNESLYGNSPVSIQITDRDSTENYSFRIQINDAHSFQLTHFEQKERNGIGDIKIDGSFGRPIATPVGELKLNTTLFFADSWKGEVLYVTKENTRKVVERYNQDLQVSLADKKATIVNLSLKNEDLDRAKNFIDALIASYNDDVMNDKKSVAVSTAAFIDERLAMIGGELGTVDTEIETFKKRNNITDISTDVGTYLKSSADLQKDQLIVERNLSLAKYIQSFLRQTSTDNELMPANLGLTERGIDNSITLYNELKLKYDRLKQSSSENSPAVQEVGMQLVAMRKSINAAVDNYIKTLNLQLREVNKEMSRTKEQISAVPTQEKIMSTILRQQKIKEELYLYLLNKREENALRLAITESNAKTVDSADGSSEPISPRKP”, the “soluble on expression in E. coli” value was “not soluble”.

On to “MGSDKIHHHHHHMTTEFKGQTIPPMHTGGQGAVTGQRFLDRLRQNPPTLYIDGQRVADPTTHPSTRNMCQSLAGLYDLQFQEDLKETLTYEDGGKRYARSFMVPRTKDDLRLIAESHRIRANYGLGFLGRAPDYMNANVMAAGAGAEYFNGCSAAVPGDPKRDFAANMRRYYEYVQGNDLCLTHALTNPQVNRSKMASELPDPYIALGIVEETDEGVIVRGARMMATLPIADEILIFPSTVLKENADKSRYAMGFGIPTNTPGLSFQCREPIDVGRDPEDHPLSSRFDEQDAFVIFDDVLVPWERIFLLYDVELANKAYAGTDAVLHMAYQVVNLKIAKTEAFLGTAQSIVNAIGSGGFQHVQAKIAEIIIMLEIMKALEVAAREQAEPNDYGVMTPARAPLDAARNYYPANHARLPELLQLLGASGIIMMPSKADREGPLGPQIAKYLQTGNANADERLRLFRLAWDMSMSSFAGRQELYERYFFGDPVRMHSALYEVYDSSEAVARIGEFLQRK”, for which the “soluble on expression in E. coli” value was “not soluble”.

With “MAHHHHHHMDSASGDGGDGAPASAERHSLKPLRWIEEVRDASQPNAVFLNVYDVRGSSTLLYSVGWGVHHVGVQVYGKEYQYGHRPIGKGIGSVKPHQSPPHTYREQFFLGQTQLSASEVEKLVVAFSDKVEWLGSNYHLVKHNCIDFARAFCEALLPPAVRVEQARRAEEAGLSQKMHMVEVEVDGMRHSVPVLIPHHVDRLARYAAHYLPKSSMQRFDRLESSFFSMSEVPQERGQPTAADPDTNRSTTPTPQPHTRTSH”, the “soluble on expression in E. coli” value is reported as “not soluble”.

Turning to “MRGSHHHHHHGSLQVTVRDAINQGMDEELERDEKVFLLGEEVAQYDGAYKVSRGLWKKYGDKRIIDTPISEMGFAGIAVGAAMAGLRPICEFMTFNFSMQAIDQVINSAAKTYYMSGGLQPVPIVFRGPNGASAGVAAQHSQCFAAWYGHCPGLKVVSPWNSEDAKGLIKSAIRDNNPVVVLENELMYGVPFEFPPEAQSKDFLIPIGKAKIERQGTHITVVSHSRPVGHCLEAAAVLSKEGVECEVINMRTIRPMDMETIEASVMKTNHLVTVEGGWPQFGVGAEICARIMEGPAFNFLDAPAVRVTGADVPMPYAKILEDNSIPQVKDIIFAIKKTLNI”, the “soluble on expression in E. coli” value is on record as “soluble”.

Regarding “MAHHHHHHMTQLHSVASLDYGDGRTCVCRICECGKHQCPGLRVPFVGETTYRDEYVGKSIERERPRKARQTVFPSKAEPGHFKTTKQEAADLLKGKDLRPAESYKPREAAAAPLPFEGTTTNRADFPGWMPDYNRTKRKEDPLPRLPGTYVTTKGAMEEPVRDLAEQGRLPKPPKSFKADDTLQNSLPFDGITNYTAEYQPKEVPMTRSAARDVQPVALPENRDFQTTVSAAYQVPPMHMRHDCPAAFVPMRPASRDGHIKLSVYNIPSGDTMY”, the “soluble on expression in E. coli” value is listed as “not soluble”.

“MRFKVVGKNIVVTEALKEAAVKKVGKLDKYFRRDAEATITMSVQKNRHIVEVTIPFEGGLLRAEEDSPDMYASIDKVIDSLERQIRRNKTKLEKKVHDGSLRFENIKFDDDEVEEEPKFEVVRTKKFAIKPMTVEEAILQMNLLGHQFFMFSNAETNEANVVYRRKDGNYGLIEPEF”: the “soluble on expression in E. coli” value is “not soluble”.

With “MLYLTQRLEIPAAATASVTLPIDVRVKSRVKVTLNDGRDAGLLLPRGLLLRGGDVLSNEEGTDFVQVIAADEEVSVVRCDDPFMLAKACYALGNRHVPLQIMPGELRYHHDHVLDDMLRQFGLTVTFGQLPFEPEAGAYASES”, the “soluble on expression in E. coli” value was “soluble”.

Consider “MKEQNESFVVDFVGGAVGHRFRSGEGRGQALPKAAGFTKGRTPKIVDATAGLGRDAFLLASLGAEVTLIERSPGMHAHLADGISRALEAGGAYAEAASRMTLLQGDSRQLLKELSPEVVVIDPMHPPRHNTALVKKEMRVLRELVGSDPDQVELMEVALAHATKRVVLKWPLRADPMPGIRKPSHQIIGKNTRYDVFMIFGNSLDQQELEHHHHHH”, for which the “soluble on expression in E. coli” value is “soluble”.

Turning to “MKSTGETLNIEEKVFAIADQFDHQGKIVQIKPFGNGNINDTFLVDLDGQTQTSFILQRINHQVFKNPAAVMGNMVRVTTHIKQKLQRQPLERPWLMPEVILTKNNQDHWDSGTGEFWRAISFIAGSESFDILTDPAQAKEVGTALGIFHQLLSDLSPSQLVDTLPGFHHTPIYLQQYQRALAQNPKLTGSLGPEINHCQRVIKTWLDQCGVLETAKAQGQLPLRLMHGDPKVNNILFDRQSGKAVSVIDLDTTKPGLIHYDLGDCLRSGCNLLGEETENWSAVEFDLDLCRAILEGYLPQCQHFLTAADYDYLCPAIVLISFELGLRFFTDYLNGDRYFKVKYPEHNLIRALVQFQLASHIQSQEDAIRRMIEDIRGLEHHHHHH”, the “soluble on expression in E. coli” value is recorded as “not soluble”.

“MSLASNVLLQASRLGEMVIKRGGATGLMVHRDTKENNLNVKFKFTSENQERIKAIMDIYPEGHKAGALIPLLDLAQRQHGWLPISAMHEVAKILEVPRMRAYEVATFYTMFNRQPVGKYFLQVCATTPCMLRGAETITETIEKKLGIHAGETTKDGLFTLAEVECLGACVNAPMIQINDDYFEDLTPKDVNEILDDLKAGRKPAAGPRSGRLAAEPFGELTSLKETPPGPGFGLQAALK”: the “soluble on expression in E. coli” value is “not soluble”.

“QFKVKSAFKKYSQVATQNGVTGAQAALRILQRGGLENVNVEMTSGMLSDHYDPRQKVLRLSEEVYSLPSIASVGVAAHEAGHALQDKVNYSPLAIRSAM”: the “soluble on expression in E. coli” value is given as “not soluble”.

On to “DAPAGGNAFEEMEKHAKEFQKTFSEQFNSLVNSKNTQDFNKALKDGSDSVLQQLSAFSSSLQGAISDANGKAKEALEQARQNVEKTAEELRKAHPDVEKEANAFKDKLQAAVQTTVQESQKLAKEVASNMEETNKKLAPKIKQAYDDFVKHAEEVQKKLHEAATKQ”, for which the “soluble on expression in E. coli” value is reported as “soluble”.

“MGSDKIHHHHHHMGIGRGYAVWSPRSIYLTDFVYANFLEELIMQTLIIYSTIDGQTLAICQKMKTIAEQAGEQVALVTLEQADALSLADFDKVLIGASIRYGKHRPELYQFVNRHHAVLDTKINGFFTVNVVARKPLKNTPETNPYMQKFLQLSLWQPQLLEVFAGKIDYPKYGFFDRTMIRFIMWMTKGPTDITGTFEFTDWEKVDAFGNRFSQH”: the “soluble on expression in E. coli” value was “not soluble”.

In the case of “MRVAVTGTPGTGKTTATGRLDTALDVAHLNDLVGTEGLYDGVDADRGSKIVDVDAVRDHFAGREDVLVESHLAHRLDDLDAVVVLRCAPETLATRLQDRGDSPEKAAENADSEALAIILSEAVRGHGADAVYEIDTTDRSPDAVAAAIQAVLDGDREPSAGTVDYTDYV”, the “soluble on expression in E. coli” value is on record as “not soluble”.

Take “MSSKFRTEDAWIIGQRMAARLDHEAYPLHKAAFFNDTHSIVQLLRAGRSLSEKDTHGNTALHIATMLGHREAIAILLANNAPVRIKNIDGWNPLMESVSYGDRQIITEMLRKLKTQTNEKMSRGKPHLMKMFQDLGDFYMEFKWDFQSWIPLLSRILPSDVCLIYKKGNLLRMDTTLADFSERNWERGDITFLFNVDAPPGEQLVVMDNKTKVFQRGRREESEAEIDEEVDVLMSTDIVNAHMSTKTVGFKQAYSGWVFKHAREEQMGDFPVNFYSVEGLKLTTRKRREHLTSDDVKKNKSILHSLTSGHTVNDDEFSVEPPTPKIATPTGRLPTTWEEYSGAAPGAPPQMGRPQIVKTNEKQFKALVGMSEEFPLSVDVLVDLLEVVAPFKHLDKLRRFCSARLPPGFPVCVEIPLLATIAAKVTFQKFQFTNDIQDKMFTIPTSYREDPTRFPDL”: the “soluble on expression in E. coli” value is “not soluble”.
